# Data: US20050260730A1, “CDK2/cyclin A crystals and uses thereof” (priority 2003, published 2005)
# pIC50: −log10 of the molar value. Non-standard residues stand in square brackets, D forms with d. Phe(4-F) = N[C@@H](Cc1ccc(F)cc1)C(=O)O
# Biological target: cyclin A (human) (UniProt P20248)
# Assay: competitive cyclin A binding assay
substance,measurement,value
H-RRL[Phe(4-F)]-NH2,pIC50,4.72
